Columns and labels:
[1] = biological target: NtNBCe1-A (cytoplasmic N-terminal domain of the electrogenic Na/HCO3 cotransporter NBCe1-A, SLC4A4) (UniProt Q9Y6R1); assay: Dynamic light scattering (DLS), batch mode; conditions: pH slightly acidic (6.5 by the Figure 1 caption and Discussion); 150 mM NaCl; 50mM Tris at every pH
[2] = biological target: NtNBCe1-A (cytoplasmic N-terminal domain of the electrogenic Na/HCO3 cotransporter NBCe1-A, SLC4A4) (UniProt Q9Y6R1+Q9Y6R1); assay: Dynamic light scattering (DLS), batch mode; conditions: pH 7.4; 150 mM NaCl; 50mM Tris at every pH
[3] = biological target: NtNBCe1-A (cytoplasmic N-terminal domain of the electrogenic Na/HCO3 cotransporter NBCe1-A, SLC4A4) (UniProt Q9Y6R1); assay: Size-exclusion chromatography with multi-angle light scattering and refractive index detection (MALS-SEC); conditions: pH 11.5; 150mM NaCl; 50mM Tris at every pH analysed
[4] = biological target: the molecule itself; assay: SEC-MALS; neutral pH, 0 mM against 10 mM bisulfite
[5] = biological target: the molecule itself; assay: SEC-MALS; ~2 mg/ml (0.5 ml) on Superdex-200 HR 10/30; 50 mM Tris, 150 mM NaCl, 1 mM TCEP; neutral pH; monomer to dimer

Chain of NtNBCe1-A (cytoplasmic N-terminal domain of the electrogenic Na/HCO3 cotransporter NBCe1-A, SLC4A4) (UniProt Q9Y6R1) (Q9Y6R1 whole entry, the tested form may be a part): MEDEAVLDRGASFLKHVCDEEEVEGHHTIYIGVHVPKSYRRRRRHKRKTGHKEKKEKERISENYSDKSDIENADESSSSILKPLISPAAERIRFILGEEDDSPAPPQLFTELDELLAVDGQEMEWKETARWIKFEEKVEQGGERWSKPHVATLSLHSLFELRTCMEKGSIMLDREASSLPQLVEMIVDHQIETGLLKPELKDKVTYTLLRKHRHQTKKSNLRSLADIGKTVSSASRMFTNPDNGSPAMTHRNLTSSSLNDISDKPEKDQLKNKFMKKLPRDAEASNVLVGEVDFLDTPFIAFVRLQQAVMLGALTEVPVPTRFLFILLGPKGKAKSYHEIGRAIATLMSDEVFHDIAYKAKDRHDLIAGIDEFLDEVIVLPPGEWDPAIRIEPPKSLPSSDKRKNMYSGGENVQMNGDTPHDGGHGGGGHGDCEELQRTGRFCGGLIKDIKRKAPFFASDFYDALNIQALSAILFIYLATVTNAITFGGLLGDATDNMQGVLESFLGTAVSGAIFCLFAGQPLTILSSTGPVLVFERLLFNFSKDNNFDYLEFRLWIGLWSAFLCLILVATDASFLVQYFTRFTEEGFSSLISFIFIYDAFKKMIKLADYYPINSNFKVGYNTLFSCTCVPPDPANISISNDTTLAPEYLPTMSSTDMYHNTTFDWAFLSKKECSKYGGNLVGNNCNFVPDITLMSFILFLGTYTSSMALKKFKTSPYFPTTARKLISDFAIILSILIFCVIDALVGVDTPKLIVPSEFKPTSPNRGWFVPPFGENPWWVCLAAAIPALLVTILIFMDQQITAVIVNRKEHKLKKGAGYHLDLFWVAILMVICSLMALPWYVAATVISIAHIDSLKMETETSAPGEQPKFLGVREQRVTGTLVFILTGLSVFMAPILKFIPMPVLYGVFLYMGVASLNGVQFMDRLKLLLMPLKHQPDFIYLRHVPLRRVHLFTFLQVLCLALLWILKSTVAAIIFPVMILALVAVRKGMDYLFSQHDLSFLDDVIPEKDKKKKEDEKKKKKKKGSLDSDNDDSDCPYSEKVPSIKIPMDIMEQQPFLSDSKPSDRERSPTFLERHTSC
Chain of NtNBCe1-A (cytoplasmic N-terminal domain of the electrogenic Na/HCO3 cotransporter NBCe1-A, SLC4A4) (UniProt Q9Y6R1+Q9Y6R1) (Q9Y6R1 whole entry, looked up, the tested form may be a part, one chain of several): as the sequence (Q9Y6R1 whole entry, the tested form may be a part) above

Molecule: NtNBCe1-A (cytoplasmic N-terminal domain of the electrogenic Na/HCO3 cotransporter NBCe1-A, SLC4A4)
- average hydrodynamic radius (DLS) [1]: 4.6 nm (theoretical 4.2 nm for pure dimers); monodisperse, Pd < 10%
- average hydrodynamic radius (DLS) [2]: increase to 5.0 nm at neutral pH (theoretical 5.6 nm for pure tetramers), consistent with a small amount of dimer-dimer interactions
- average molar mass (MALS-SEC) [3]: 42.6 kDa (theoretical monomer 40.6 kDa); monomer predominates

B1: cytoplasmic, N-terminal domain of NBCe1-A (residues 1 to 362) (domain or fragment, human, UniProt Q9Y6R1-2 1-362, looked up)
chain: MSTENVEGKPSNLGERGRARSSTFLRVVQPMFNHSIFTSAVSPAAERIRFILGEEDDSPAPPQLFTELDELLAVDGQEMEWKETARWIKFEEKVEQGGERWSKPHVATLSLHSLFELRTCMEKGSIMLDREASSLPQLVEMIVDHQIETGLLKPELKDKVTYTLLRKHRHQTKKSNLRSLADIGKTVSSASRMFTNPDNGSPAMTHRNLTSSSLNDISDKPEKDQLKNKFMKKLPRDAEASNVLVGEVDFLDTPFIAFVRLQQAVMLGALTEVPVPTRFLFILLGPKGKAKSYHEIGRAIATLMSDEVFHDIAYKAKDRHDLIAGIDEFLDEVIVLPPGEWDPAIRIEPPKSLPSSDKRKNM
notes: NBCe1-A, sodium-bicarbonate cotransporter variant 1A (SLC4 family), cytoplasmic N-terminal domain, residues 1 to 362; theoretical mass of the monomer 40.6 kDa, of the dimer 81.2 kDa; Exists in a concentration- and pH-dependent equilibrium of monomer, dimer and higher-order clusters; also called NtNBCe1-A; NtNBCe1
- fold increase of high-order self-associations with bisulfite against none [4]: ~2 fold
- stoichiometry N [5]: 2
